Test results published in the DeepSol protein solubility set.

assay: soluble on expression in E. coli; label from the status in PepcDB or PDB records

Sequence | soluble on expression in E. coli
ARPKGIRIGYLPQVMRLQDGHTVYEEVEQAFNDIRQIEEEIRRLSDEMAGRTDYESDDYIRLIEHYTNMSETLSLMQQGNYHAAIEQTLIGLGFGREDFHRPTADFSGGWRMRIELAKLLLQRPEVLLLDEPTNHLDIESIGWLEQFIATNAGAVILVSHDRAFIDNTTTRTIEIELGHIYDYKTNYSHYVELREERLRQQMRAYENQQKMIRDTEDFIERFRYKATKSVQVQSRIKQLEKVERVEIDERDRSAFHFRFIPAQPSGSYP | not soluble
ASGFAGHLSVGFSPVVGPVVLPESIRRFRAAYPDVLVSVIEASIDLLLPGLRNGDFDIVVGRLEEVAMPEDVRCETLYDEPVCLVAGRAHPLAGRRRISWEDAQAYPWISPQQGTPLRMRLEMELAVAGQPLPRHAVESTSVQTNVALLDRS | not soluble
ASGRRAPRTGLLELRCGAGSGAGGERWQRVLLSLAEDALTVSPADGEPGPEPEPAQLNGAAEPGAAPPQLPEALLLQREVSPYFKNSAGGTSVGWDSPPASPLQRQPSSPGPQPRNLSEAKHVSLKMAYVSRRCTPTDPEPRYLEICAADGQDAVFLRAKDEASARSWAGAIQAQIGT | soluble
ASHSRKFLDVRSEEELLSCIKKETEAGKLPPNVAAGMEELYQNYRNAVIESGNPKADEIVLSNMTVALDRILLDVEDPFVFSSHHKAIREPFDYYIFGQNYIRPLIDFGNSFVGNLSLFKDIEEKLQQGHNVVLISNHQTEADPAIISLLLEKTNPYIAENTIFVAGDRVLADPLCKPFSIGRNLICVYSKKHMFDIPELTETKRKANTRSLKEMALLLRGGSQLIWIAPSGGRDRPDPSTGEWYPAPFDASSVDNMRRLIQHSDVPGHLFPLALLCHDIMPPPSQVEIEIGEKRVIAFNGAGLSVAPEISFEEIAATHKNPEEVREAYSKALFDSVAMQYNVLKTAISGKQGLGASTADVSLSQPW | soluble
ASNSQLNAMAHQIQEMFPQVPYHLVLQDLQLTRSVEITTDNILEGRIQVPF | soluble
ATEPFMKGRVKLLPDILPGKNKDHEFEALVSTIQDMSLKMMELMVERPPRELILSMRRNKNPMYQINFASANISTSIAVKQELLEISKMKDRGYRLLYLLHKELQVMELKASIQMKTREEMDKQQKEYFLQQQIKTIQEELGGNINDIEVQELRTKAATMKWSSEVAETFEKELRKLERLHPQSPDYSVQMQYVQTIISLPWGVFSKDNFNLKRAQSVLDRDHFGLEKVKERIIEHLAVLKMKGDMKSPIICLYGPPGVGKTSLGKSIAESLGRKYVRISLGGLHDEAEIRGHRRTYIGAMCGRIIQSLQRAGTSNPVFVLDEIDKIDSDYKGDPSSALLEVLDPEQNNAFHDNYLDIDFDLSHVLFIATANSLSSISRPLLDRMELIDV | not soluble
ATFIEQQVGGNLTEASLALRLPTLLPYNGVLFLGNSLLVRLVDALTQLPESYPVYTNRGASGIDGLLATAAGIGIGSNKPVVAVIGDTSTLYDLNSFALFKNVTQPTLIFVINNNGGAIFDMLPVDEQVKDQFYRLPHNGDFSQIAAMFDLKYAHPYTWADLNSVVKQAYSRRKATLIEIKTNPSDG | not soluble
ATPAPAAEMPGITIISASQTGNARRVAEALRDDLLAAKLNVKLVNAGDYKFKQIASEKLLIVVTSTQGEGEPPEEAVALHKFLFSKKAPKLENTAFAVFSLGDTSYEFFCQSGKDFDSKLAELGGERLLDRVDADVEYQAAASEWRARVVDALKSRAPVAAPSQSVA | soluble
AVEPKEDTITVTAAPAPQESAWGPAATIAARQSATGTKTDTPIQKVPQSISVVTAEEMALHQPKSVKEALSYTPGVSVGTRGASNTYDHLIIRGFAAEGQSQNNYLNGLKLQGNFYNDAVIDPYMLERAEIMRGPVSVLYGKSSPGGLLNMVSKRPTTEPLKEVQFKAGTDSLFQTGFDFSDSLDDDGVYSYRLTGLARSANAQQKGSEEQRYAIAPAFTWRPDDKTNFTFLSYFQNEPETGYYGWLPKEGTVEPLPNGKRLPTDFNEGAKNNTYSRNEKMVGYSFDHEFNDTFTVRQNLRFAENKTSQNSVYGYGVCSDPANAYSKQCAALAPADKGHYLARKYVVDDEKLQNFSVDTQLQSKFATGDIDHTLLTGVDFMRMRNDINAWFGYDDSVPLLNLYNPSSHHHHHHGSSVNTDFDFNAKDPANSGPYRILNKQKQTGVYVQDQAQWDKVLVTLGGRYDWADQESLNRVAGTTDKRDDKQFTWRGGVNYLFDNGVTPYFSYSESFEPSSQVGKDGNIFAPSKGKQYEVGVKYVPEDRPIVVTGAVYNLTKTNNLMADPEGSFFSVEGGEIRARGVEIEAKAALSASVNVVGSYTYTDAEYTTDTTYKGNTPAQVPKHMASLWADYTFFDGPLSGLTLGTGGRYTGSSYGDPANSFKVGSYTVVDALVRYDLARVGMAGSNVALHVNNLFDREYVASCFNTYGCFWGAERQVVATATFRF | soluble
AVMHYTSDTEFCVSCHSMEIPYKEYQGSVHFSNAKGIRAECSDCHIPQEPMDYLITKIRASKDIYHEFVTGKIDTPEKYEAHRKDMAETVWAQFRENDSATCRSCHDFDAMEEFEQSRDAAKMHEYAKANDQTCIDCHKGVAHFAPEAELDSKAFETLMSFTTKTAANAKVVYPVTTINMGEMGTINPTTKLEVMSAEGDNRTVKLNAFQMKGAEQVLYMGEGQRAIVATLTEQGQQALEAGEFEADVYGNEWRAVSLTGAIDSPVVDTLDPVWSYAEELDNVYCATCHAKIPSNHFTV | not soluble
AWQARGLGTARLQLVEFSAFVEPPDAVDSYQRHLFVHISQHCPSPGAPPLESVDVRQIYDKFPEKKGGLRELYDRGPPHAFFLVKFWADLNWGPSGEEAGAGGSISSGGFYGVSSQYESLEHMTLTCSSKVCSFGKQVVEKVETERAQLEDGRFVYRLLRSPMCEYLVNFLHKLRQLPERYMMNSVLENFTILQVVTNRDTQELLLCTAYVFEVSTSERGAQHHIYRLVRD | soluble
CDKSANPKQPTQGMSVVTSFYPMYAMTKEVSGDLNDVRMIQSGAGIHSFEPSVNDVAAIYDADLFVYHSHTLEAWARDLDPNLKKSKVNVFEASKPLTLDRVKGLEDMEVTQGIDPATLYDPHTWTDPVLAGEEAVNIAKELGHLDPKHKDSYTKKAKAFKKEAEQLTEEYTQKFKKVRSKTFVTQHTAFSYLAKRFGLKQLGISGISPEQEPSPRQLKEIQDFVKEYNVKTIFAEDNVNPKIAHAIAKSTGAKVKTLSPLEAAPSGNKTYLENLRANLEVLYQQLK | soluble
CHETTTVALPESIGVGKGTTTLEDFENADAIFIIGQNPGSNSPRMMSELHAAAKRGASIISFNPLREKALVRFASPQDPRDMLSLHGVEISSQYHQVRIGGDMIALQGVCKAVIEADDVARREHLPRVLDVAFIEEHTHGFEQYADYCRQLPWDLIESHSGLTRQAIEDVAAVYRRSERVICCWGMGVTQHKRGGDAVQQIINLLLLRGNIGKLGAGACPVRGHSNVQGDRTMGIYEKAGEPFLASMSKVFGFEA | not soluble
CKYEGDAQKRLAIRPFPAEFVETVTLRDGQPILLRPILPEDEPLHAQFINSVSKEDLYKRFFSEVGEFNHEALANFTQIDYDREMAFVAVAFDKSGPSIIGVARALITPDNSDAEFAILVRSDLKGKGLGKILMEKIISYCKIKGTKQMSGMTMPTNRGMLMLAQRLGFEVDVQFADGTADMVLPLN | not soluble
CLTRISRPWLVTSCIWNKQLIRRAVVWLCGLTGKPILKLTNKDYTENGLGELLAKYGSAYEVNIKLFNDIQHTITGWPGGKPNADDSSRPERALPYPKRVVIFSPHPDDDVISMGGTFHKLVNQGHDVHVAYQTSGNIAVGDEEVIRYVSYLRNVCRQYGHESSPILAKAEEVRHYLMHKKIEGDPEQEDIRFMKGTIRREEARTACRYLGLPEDHVHFLDLPFYETGLIRKNPLGEEDVRIIMALLEEIQPHRIFVAGDLADPHGTHRICLNAVLAAIDELKEESWFKEDCRVWMYRGAWAEWEIDYIEMAVPMSPDELRFKRNSILKHQSQMESAPFLGDDERLFWQRAEDRNRQTATLYEKLGLASYEAIEAFVQYRPVE | not soluble
